Patent US6893829B2, “Human leukocyte 12-lipoxygenase and its role in the pathogenesis of disease states” (City of Hope, priority 1992, dated 2005)

What was measured:
[1] = system: 12-LO activity in MCF-7 cells; assay: 12-HETE formation in MCF-7 cells; conditions: four hours, basal 257±10 pg/10^6 cells
[2] = system: leukocyte-type 12-LO in MCF-7 cells; assay: 12-LO protein and mRNA expression in MCF-7 cells; conditions: EGF 50 ng/ml, 24 hours
[3] = system: VEGF protein in MCF-7 cells; assay: VEGF protein expression in breast cancer cells (immunoblot); type: cell-based, human; conditions: MCF-7, 24 hours
Method: FIG. 8 illustrates the dose-dependent effect of platelet-derived growth factor (PDGF) on vascular endothelial growth factor (VEGF) protein (42 kD) expression in MCF-7 breast cancer cells. Nearly confluent MCF-7 cells were serum starved for 24 hours by placing in DME medium+0.4% FCS and 0.2% BSA. This medium was then freshly replaced and the cells incubated for another 24 hours with PDGF. At the end of the incubation, the cell monolayers were washed with ice-cold PBS, scraped into PBS and pelleted by centrifugation. The cell pellets were then lysed and equal amounts of protein (50 μg) subjected to electrophoresis and immunoblotting to detect VEGF using a specific antibody from Santa Cruz Biotechnology. Detection was by a chemiluminiscent technique.
FIG. 9 illustrates the effect of epidermal growth factor (EGF) and the 12-lipoxygenase product 12-HETE on VEGF protein expression in the MCF-7 breast cancer cell line MCF-7. MCF-7 cells were treated with EGF and 12-HETE for 24 hours and VEGF protein identified as described in the legend to FIG. 8.

B1: EGF: Epidermal Growth Factor (protein, UniProt P01133 23-1207, looked up)
Pro-epidermal growth factor: PQHWSCPEGTLAGNGNSTCVGPAPFLIFSHGNSIFRIDTEGTNYEQLVVDAGVSVIMDFHYNEKRIYWVDLERQLLQRVFLNGSRQERVCNIEKNVSGMAINWINEEVIWSNQQEGIITVTDMKGNNSHILLSALKYPANVAVDPVERFIFWSSEVAGSLYRADLDGVGVKALLETSEKITAVSLDVLDKRLFWIQYNREGSNSLICSCDYDGGSVHISKHPTQHNLFAMSLFGDRIFYSTWKMKTIWIANKHTGKDMVRINLHSSFVPLGELKVVHPLAQPKAEDDTWEPEQKLCKLRKGNCSSTVCGQDLQSHLCMCAEGYALSRDRKYCEDVNECAFWNHGCTLGCKNTPGSYYCTCPVGFVLLPDGKRCHQLVSCPRNVSECSHDCVLTSEGPLCFCPEGSVLERDGKTCSGCSSPDNGGCSQLCVPLSPVSWECDCFPGYDLQLDEKSCAASGPQPFLLFANSQDIRHMHFDGTDYGTLLSQQMGMVYALDHDPVENKIYFAHTALKWIERANMDGSQRERLIEEGVDVPEGLAVDWIGRRFYWTDRGKSLIGRSDLNGKRSKIITKENISQPRGIAVHPMAKRLFWTDTGINPRIESSSLQGLGRLVIASSDLIWPSGITIDFLTDKLYWCDAKQSVIEMANLDGSKRRRLTQNDVGHPFAVAVFEDYVWFSDWAMPSVMRVNKRTGKDRVRLQGSMLKPSSLVVVHPLAKPGADPCLYQNGGCEHICKKRLGTAWCSCREGFMKASDGKTCLALDGHQLLAGGEVDLKNQVTPLDILSKTRVSEDNITESQHMLVAEIMVSDQDDCAPVGCSMYARCISEGEDATCQCLKGFAGDGKLCSDIDECEMGVPVCPPASSKCINTEGGYVCRCSEGYQGDGIHCLDIDECQLGEHSCGENASCTNTEGGYTCMCAGRLSEPGLICPDSTPPPHLREDDHHYSVRNSDSECPLSHDGYCLHDGVCMYIEALDKYACNCVVGYIGERCQYRDLKWWELRHAGHGQQQKVIVVAVCVVVLVMLLLLSLWGAHYYRTQKLLSKNPKNPYEESSRDVRSRRPADTEDGMSSCPQPWFVVIKEHQDLKNGGQPVAGEDGQAADGSMQPTSWRQEPQLCGMGTEQGCWIPVSSDKGSCPQVMERSFHMPSYGTQTLEGGVEKPHSLLSANPLWQQRALDPPHQMELTQ
modifications: Pro-epidermal growth factor
formation of 12-HETE ([1]; serum-starved MCF-7, EGF 50 ng/ml): 462 ± 15 pg | formation of 12-HETE ([1]; serum-starved MCF-7, EGF 100 ng/ml): 593 ± 46 pg | levels of 12-LO protein (72 kD) and 12-LO mRNA [2]: marked increase | VEGF protein expression [3]: induced
